How the values were obtained:
Assay in all cases: holdup assay
Design in all cases: key: below the threshold = too weak to quantify, mostly under pKd 3.1 to 4
Conditions in all cases: plain residues with an end cap or a label only (N-terminal biotin on a linker: ttds)
NHERF4_1, Q86UT5-2 = molecular target: NHERF4_1, Q86UT5-2
DLG4_3, P78352 = molecular target: DLG4_3, P78352
DLG1_2, Q12959 = molecular target: DLG1_2, Q12959
GRASP, Q7Z6J2 = molecular target: GRASP, Q7Z6J2
GORASP2, Q9H8Y8 = molecular target: GORASP2, Q9H8Y8
GIPC2, Q8TF65 = molecular target: GIPC2, Q8TF65
Sequence of GIPC2, Q8TF65 (Q8TF65 112-203): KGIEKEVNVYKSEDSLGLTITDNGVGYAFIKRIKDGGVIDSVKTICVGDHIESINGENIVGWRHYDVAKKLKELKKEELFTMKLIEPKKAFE

NHERF3_4, Q5T2W1 = molecular target: T1, NHERF3_4, Q5T2W1
T1 sequence (Q5T2W1 373-468, limits assumed, looked up): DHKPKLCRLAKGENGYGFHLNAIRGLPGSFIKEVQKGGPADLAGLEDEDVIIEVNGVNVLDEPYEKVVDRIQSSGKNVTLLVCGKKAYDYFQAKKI

SNTA1, Q13424 = molecular target: T2, SNTA1, Q13424
T2 sequence (Q13424 82-180, limits assumed, looked up): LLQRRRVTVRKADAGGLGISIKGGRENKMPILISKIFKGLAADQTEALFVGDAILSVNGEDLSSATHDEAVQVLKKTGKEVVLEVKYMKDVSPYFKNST

MAST2, Q6P0Q8 = molecular target: MAST2, Q6P0Q8
Sequence of MAST2, Q6P0Q8 (Q6P0Q8 1099-1202): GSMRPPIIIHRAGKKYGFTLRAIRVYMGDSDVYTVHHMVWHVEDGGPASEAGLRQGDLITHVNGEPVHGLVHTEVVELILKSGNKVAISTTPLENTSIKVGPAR

NOS1, P29475 = molecular target: NOS1, P29475
Sequence of NOS1, P29475 (P29475 9-101): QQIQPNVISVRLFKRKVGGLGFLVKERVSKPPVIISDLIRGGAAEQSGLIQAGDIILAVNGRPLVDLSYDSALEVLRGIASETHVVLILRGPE

FRMPD2_1, Q68DX3 = molecular target: FRMPD2_1, Q68DX3
Sequence of FRMPD2_1, Q68DX3 (Q68DX3 770-861): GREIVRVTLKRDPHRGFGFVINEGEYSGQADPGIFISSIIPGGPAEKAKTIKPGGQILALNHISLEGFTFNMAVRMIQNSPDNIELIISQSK

Inadl_9, Q8NI35 = molecular target: Inadl_9, Q8NI35
Sequence of Inadl_9, Q8NI35 (Q8NI35 1530-1615): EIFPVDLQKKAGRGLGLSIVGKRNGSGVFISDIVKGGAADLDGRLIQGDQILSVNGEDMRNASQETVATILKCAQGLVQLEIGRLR

MAGI2_6, Q86UL8 = molecular target: MAGI2_6, Q86UL8
Sequence of MAGI2_6, Q86UL8 (Q86UL8 1141-1229): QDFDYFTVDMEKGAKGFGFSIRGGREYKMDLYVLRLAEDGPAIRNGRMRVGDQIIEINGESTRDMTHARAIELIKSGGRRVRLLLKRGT

APBA3_1, O96018 = molecular target: T3, APBA3_1, O96018
T3 sequence (O96018 389-490, limits assumed, looked up): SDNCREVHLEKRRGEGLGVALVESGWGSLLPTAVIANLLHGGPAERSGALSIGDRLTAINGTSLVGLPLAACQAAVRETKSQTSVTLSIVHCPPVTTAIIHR

PTPN3, P26045 = molecular target: PTPN3, P26045
Sequence of PTPN3, P26045 (P26045 505-587): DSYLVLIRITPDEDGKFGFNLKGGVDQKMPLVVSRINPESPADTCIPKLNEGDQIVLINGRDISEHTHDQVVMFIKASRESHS

MAGI2_3, Q86UL8 = molecular target: MAGI2_3, Q86UL8
Sequence of MAGI2_3, Q86UL8 (Q86UL8 600-682): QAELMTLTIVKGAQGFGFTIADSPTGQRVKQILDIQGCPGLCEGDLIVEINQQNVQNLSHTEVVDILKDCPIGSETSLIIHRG

APBA1_2, Q02410 = molecular target: T4, APBA1_2, Q02410
T4 sequence (Q02410 742-832, limits assumed, looked up): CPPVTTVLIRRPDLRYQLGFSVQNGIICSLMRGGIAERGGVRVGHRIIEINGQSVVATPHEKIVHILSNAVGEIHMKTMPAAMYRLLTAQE

LNX2_3, Q8N448 = molecular target: T5, LNX2_3, Q8N448
T5 sequence (Q8N448 463-564, limits assumed, looked up): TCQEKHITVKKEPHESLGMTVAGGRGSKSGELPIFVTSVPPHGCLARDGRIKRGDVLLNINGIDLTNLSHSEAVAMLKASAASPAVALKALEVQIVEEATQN

SCRIB_3, Q14160 = molecular target: SCRIB_3, Q14160
Sequence of SCRIB_3, Q14160 (Q14160 999-1103): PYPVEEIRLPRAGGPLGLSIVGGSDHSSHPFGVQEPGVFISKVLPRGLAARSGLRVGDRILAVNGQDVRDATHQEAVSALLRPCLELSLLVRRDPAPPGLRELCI

RHPN1, Q8TCX5 = molecular target: T6, RHPN1, Q8TCX5
T6 sequence (Q8TCX5 508-602, limits assumed, looked up): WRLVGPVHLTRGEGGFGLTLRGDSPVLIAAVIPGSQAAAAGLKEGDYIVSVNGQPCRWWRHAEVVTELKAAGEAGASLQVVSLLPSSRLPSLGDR

Inadl_8, Q8NI35 = molecular target: Inadl_8, Q8NI35
Sequence of Inadl_8, Q8NI35 (Q8NI35 1425-1530): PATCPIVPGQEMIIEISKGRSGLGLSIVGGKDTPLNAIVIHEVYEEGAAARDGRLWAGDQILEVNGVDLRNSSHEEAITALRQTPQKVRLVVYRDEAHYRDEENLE

MPDZ_12, O75970 = molecular target: T7, MPDZ_12, O75970
T7 sequence (O75970 1857-1958, limits assumed, looked up): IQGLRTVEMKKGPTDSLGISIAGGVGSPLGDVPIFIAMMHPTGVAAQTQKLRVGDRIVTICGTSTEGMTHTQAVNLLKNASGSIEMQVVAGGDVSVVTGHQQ

HTRA4, P83105 = molecular target: T8, HTRA4, P83105
T8 sequence (P83105 378-476, limits assumed, looked up): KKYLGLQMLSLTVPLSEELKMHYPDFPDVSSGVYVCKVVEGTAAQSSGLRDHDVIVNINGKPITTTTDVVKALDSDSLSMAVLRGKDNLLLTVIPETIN

AHNAK1, Q09666 = molecular target: AHNAK1, Q09666
Sequence of AHNAK1, Q09666 (Q09666 4-100): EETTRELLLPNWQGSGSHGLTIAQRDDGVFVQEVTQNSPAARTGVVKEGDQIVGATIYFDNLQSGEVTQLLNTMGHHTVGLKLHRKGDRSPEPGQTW

LIN7C, Q9NUP9 = molecular target: T9, LIN7C, Q9NUP9
T9 sequence (Q9NUP9 88-185, limits assumed, looked up): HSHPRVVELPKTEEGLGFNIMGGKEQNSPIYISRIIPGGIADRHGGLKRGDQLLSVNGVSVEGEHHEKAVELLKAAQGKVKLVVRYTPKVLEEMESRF

MPDZ_10, O75970 = molecular target: T10, MPDZ_10, O75970
T10 sequence (O75970 1624-1722, limits assumed, looked up): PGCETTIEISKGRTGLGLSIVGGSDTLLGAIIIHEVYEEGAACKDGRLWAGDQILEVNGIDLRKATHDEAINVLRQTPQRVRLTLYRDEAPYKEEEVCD

RADIL, Q96JH8 = molecular target: T11, RADIL, Q96JH8
T11 sequence (Q96JH8 971-1071, limits assumed, looked up): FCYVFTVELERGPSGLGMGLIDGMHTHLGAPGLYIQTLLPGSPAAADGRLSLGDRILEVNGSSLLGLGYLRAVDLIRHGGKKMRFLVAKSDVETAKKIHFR

Sequence of DLG4_3, P78352 (P78352 306-403): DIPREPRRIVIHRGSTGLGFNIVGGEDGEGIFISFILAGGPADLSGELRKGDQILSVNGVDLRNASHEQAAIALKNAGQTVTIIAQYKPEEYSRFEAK
Sequence of GRASP, Q7Z6J2 (Q7Z6J2 96-193): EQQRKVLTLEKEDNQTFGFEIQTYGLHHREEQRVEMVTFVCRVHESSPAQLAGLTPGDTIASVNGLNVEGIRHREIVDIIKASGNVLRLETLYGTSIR
Sequence of DLG1_2, Q12959 (Q12959 314-412): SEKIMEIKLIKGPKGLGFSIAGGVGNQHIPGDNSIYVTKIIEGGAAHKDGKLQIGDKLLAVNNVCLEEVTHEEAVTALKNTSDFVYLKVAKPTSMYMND
Sequence of NHERF4_1, Q86UT5-2 (Q86UT5 other isoform, or with tags, fused parts or gaps): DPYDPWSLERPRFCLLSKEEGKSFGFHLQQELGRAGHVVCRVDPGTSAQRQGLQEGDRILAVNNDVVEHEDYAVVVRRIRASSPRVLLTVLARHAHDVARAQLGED

B1: SLC1A5, Q15758 (peptide)
chain: TVASEKESVM
pKd (NHERF4_1, Q86UT5-2): below the threshold
pKd (DLG4_3, P78352): below the threshold
pKd (DLG1_2, Q12959): below the threshold
pKd (GRASP, Q7Z6J2): below the threshold
pKd (GORASP2, Q9H8Y8): below the threshold
pKd (GIPC2, Q8TF65): 3.54
pKd (NHERF3_4, Q5T2W1): below the threshold
pKd (SNTA1, Q13424): 3.81
pKd (MAST2, Q6P0Q8): 4.61
pKd (NOS1, P29475): below the threshold
pKd (FRMPD2_1, Q68DX3): below the threshold
pKd (Inadl_9, Q8NI35): below the threshold
pKd (MAGI2_6, Q86UL8): below the threshold
pKd (APBA3_1, O96018): below the threshold
pKd (PTPN3, P26045): 4.94
pKd (MAGI2_3, Q86UL8): below the threshold
pKd (APBA1_2, Q02410): below the threshold
pKd (LNX2_3, Q8N448): below the threshold
pKd (SCRIB_3, Q14160): 3.97
pKd (RHPN1, Q8TCX5): 3.67
pKd (Inadl_8, Q8NI35): below the threshold
pKd (MPDZ_12, O75970): below the threshold
pKd (HTRA4, P83105): below the threshold
pKd (AHNAK1, Q09666): below the threshold
pKd (LIN7C, Q9NUP9): 3.62
pKd (MPDZ_10, O75970): below the threshold
pKd (RADIL, Q96JH8): below the threshold

B2: KIR3DL3, Q8N743 (peptide)
chain: PKTPPTDTSV
pKd (NHERF4_1, Q86UT5-2): below the threshold
pKd (DLG4_3, P78352): below the threshold
pKd (DLG1_2, Q12959): 3.75
pKd (GRASP, Q7Z6J2): below the threshold
pKd (GORASP2, Q9H8Y8): 4.04
pKd (GIPC2, Q8TF65): below the threshold
pKd (NHERF3_4, Q5T2W1): below the threshold
pKd (SNTA1, Q13424): below the threshold
pKd (MAST2, Q6P0Q8): 4.7
pKd (NOS1, P29475): below the threshold
pKd (FRMPD2_1, Q68DX3): below the threshold
pKd (Inadl_9, Q8NI35): below the threshold
pKd (MAGI2_6, Q86UL8): 3.97
pKd (APBA3_1, O96018): below the threshold
pKd (PTPN3, P26045): 4.48
pKd (MAGI2_3, Q86UL8): below the threshold
pKd (APBA1_2, Q02410): 3.74
pKd (LNX2_3, Q8N448): below the threshold
pKd (SCRIB_3, Q14160): below the threshold
pKd (RHPN1, Q8TCX5): below the threshold
pKd (Inadl_8, Q8NI35): below the threshold
pKd (MPDZ_12, O75970): below the threshold
pKd (HTRA4, P83105): below the threshold
pKd (AHNAK1, Q09666): below the threshold
pKd (LIN7C, Q9NUP9): 3.51
pKd (MPDZ_10, O75970): below the threshold
pKd (RADIL, Q96JH8): below the threshold
